According to CN117088975A:

Biological target: ALB蛋白(天然提取)
Assay: AMC sensor, antibody immobilised at 10 ug/ml, ALB in gradient dilution in PBST

B1: Anti-ALB-2G9mut2 (antibody, mouse IgG1, kappa, V domains shown)
VH: QVQLQQSGAELVRPGSSVKISCKASGYAFSNYWMNWVKQRPGQGLEWIGQIYPGDGDTYYNGRFKGKATITADKSPTTAYMQLSSLTSEDSAVYVCARGVLLGSFDYWGQGTTLTVSS
VL: QIVLTQSPAIMSASPGEKVTMTCSASSSVSYMHWYQQKSGTSPKRWIYDTSKLASGVPVRFSGSGSGTSYSLTIRSMEAEDAATYYCQQWGSNPLTFGAGTKLELKR
Kd: 1.85 nM
koff: 0.00241 s⁻¹
kon: 1.3e+06 M⁻¹ s⁻¹
